Biological target: the molecule itself
Assay: gel filtration chromatography (Superdex 200 5/150 GL), self-association
Text: Gel filtration analysis was used to verify the expected molecular weight of the purified OgLuc proteins based on the theoretical values and consequently to determine their oligomeric state. A comparison between the relative hydrodynamic volume of the OgLuc variants C1+A4E and 9B8 was made by gel filtration chromatography. For this analysis, the nucleotide sequence for the OgLuc variants, C1+A4E and 9B8, were cloned into a HQ-Tagged FLEXI® Vector (Promega Corp.) to create a HQHQHQ N-terminally tagged protein that was overexpressed in E. coli KRX cells. The overexpressed proteins were purified using the HISLINK™ Protein Purification System (Promega Corp.) according to manufacturer's instructions. Samples of each individual standard and sample protein were analyzed by gel filtration chromatography, which was performed at 24° C. on an Agilent 1200 HPLC, using a Superdex 200 5/150 GL column (GE Healthcare) with a flow rate of 0.25 mL/min (FIGS. 43A-B). The mobile phase (i.e., running buffer) consisted of 50 mM Tris and 150 mM NaCl, pH 7.5. Protein elution was monitored at 214 and 280 nm. A standard calibration curve was generated using: 1) Ovalbumin, 43 kDa (GE Healthcare), 2) Carbonic Anhydrase, 29 kDa (Sigma) and 3) Myoglobin, 17 kDa (Horse Heart, Sigma). The molecular weights of the purified proteins were calculated directly from the calibration curve.
The relative hydrodynamic volume of the L27V variant was made by gel filtration chromatography. For this analysis, the nucleotide sequence for the L27V variant was cloned into a HaloTag® vector pFN18A (Promega Corp.) to create a HaloTag®-terminally tagged protein that was overexpressed in E. coli KRX cells (Promega Corp.). The overexpressed protein was purified using the HaloTag® Protein Purification System (Promega Corp.) according to manufacturer's instructions. Samples of each individual standard and sample protein were analyzed by gel filtration chromatography performed at 24° C. on an Agilent 1200 HPLC using a Superdex 200 5/150 GL column (GE Healthcare) with a flow rate of 0.25 mL/min (FIG. 56).

Protein | binding result
OgLuc variant L27V (9B8 opt+K33N+L27V+T39T+K43R+Y68D) (enzyme, Expressed as a HaloTag fusion (pFN18A) in E. coli KRX and purified with the HaloTag Protein Purification System; It eluted as a 24 kDa protein) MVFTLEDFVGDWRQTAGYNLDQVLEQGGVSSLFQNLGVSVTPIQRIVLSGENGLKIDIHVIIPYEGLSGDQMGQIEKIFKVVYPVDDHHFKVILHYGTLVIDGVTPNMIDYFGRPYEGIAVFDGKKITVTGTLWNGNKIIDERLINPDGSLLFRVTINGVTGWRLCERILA | no binding
OgLuc variant C1+A4E, HQHQHQ N-terminally tagged (enzyme, Purified from E. coli KRX with the HISLINK system) HQHQHQMVFTLEDFVGDWRQTAGYNQDQVLEQGGLSSLFQKLGVSVTPIQKIVLSGENGLKFDIHVIIPYEGLSGFQMGLIEMIFKVVYPVDDHHFKIILHYGTLVIDGVTPNMIDYFGRPYEGIAVFDGKKITVTGTLWNGNKIIDERLINPDGSLLFRVTINGVTGWRLCERILA | binds
OgLuc variant 9B8, HQHQHQ N-terminally tagged (enzyme, Purified from E. coli KRX with the HISLINK system) HQHQHQMVFTLEDFVGDWRQTAGYNLDQVLEQGGLSSLFQKLGVSVTPIQKIVLSGENGLKIDIHVIIPYEGLSGYQMGQIEKIFKVVYPVDDHHFKVILHYGTLVIDGVTPNMIDYFGRPYEGIAVFDGKKITVTGTLWNGNKIIDERLINPDGSLLFRVTINGVTGWRLCERILA | no binding
